Laboratory results taken from patent US20240255509A1, “COMPOSITIONS AND METHODS RELATED TO K180 DIMETHYLATED H1.0 PROTEIN” (Aelan Cell Technologies, Inc., priority 2016, published 2024).

What was measured:
Assay in all cases: In vitro methylation with GLP, products identified by LC-MS
Type in all cases: biochemical
[1] = target: T1, unmodified H1.0 peptide ([…] (SEQ ID NO:42)) (Homo sapiens, UniProt P07305); details: 10 U enzyme, 3.2 mM S-Adenosyl-L-Methionine, 37° C. 1 hour, spectral counts
T1 construct: purchased ThermoFisher Scientific (peptide); NEB (G9A) M0235S (G9A)
Procedure: (§1) In order to identify the precise sites of methylation by G9A and GLP methyltransferases on histone H1.0, in vitro methylation assays were performed and subsequently analyzed by Liquid Chromatography and High-resolution Mass Spectrometry (LC-MS) analysis. Methylation reactions were set up using either G9A methyltransferase (NEB, M0235S, Lot #0031201) or GLP methyltransferase (Cayman Chemical, 10755). The methyl donor in each reaction was unlabeled S-Adenosyl-L-Methionine (NEB, B9003S). […]
(§2) For the Liquid Chromatography and High-resolution Mass Spectrometry (LC-MS) analysis, samples were prepared as described above and about 1 μg o the product was injected onto a Thermo Scientific Easy nLC system configured with a 10 cm×100 um trap column and a 25 cm×100 um ID resolving column. […] This ensured optimal full-scan data for quantification. […]
(§3) Protein identification was performed using Thermo Scientific Proteome Discoverer version 1.4 (including Sequest and Percolator algorithms) using RefSeqHuman sequence database. […] Protein quantification was performed using Pinpoint version 1.4 software. The Pinpoint quantification workflow included importing the Proteome Discoverer .msf files as spectral libraries. Identified peptides were subsequently quantified in MS .raw files using the Pinpoint peak finding, chromatographic alignment and area calculation algorithms. […]

[2] = target: T2, K180 dimethylated H1.0 peptide (SEQ ID NO:3) (Homo sapiens, UniProt P07305); details: K180 dimethylated peptide as substrate
T2 construct: purchased ThermoFisher Scientific (peptide); Cayman Chemical (GLP) 10755 (GLP)
Procedure: as §1, §2, §3

[3] = target: T3, recombinant human H1.0 protein (Homo sapiens, UniProt P07305); details: 1 μg full-length protein
T3 construct: full-length recombinant human H1.0 (NEB, M2501S); purchased NEB M2501S (H1.0); M0235S (G9A)
Procedure: as §1, §2, §3

B1: GLP: recombinant G9A-like protein (GLP) methyltransferase (Cayman Chemical, 10755) (protein, UniProt Q9H9B1 2-1298, looked up)
Histone-lysine …: AAADAEAVPARGEPQQDCCVKTELLGEETPMAADEGSAEKQAGEAHMAADGETNGSCENSDASSHANAAKHTQDSARVNPQDGTNTLTRIAENGVSERDSEAAKQNHVTADDFVQTSVIGSNGYILNKPALQAQPLRTTSTLASSLPGHAAKTLPGGAGKGRTPSAFPQTPAAPPATLGEGSADTEDRKLPAPGADVKVHRARKTMPKSVVGLHAASKDPREVREARDHKEPKEEINKNISDFGRQQLLPPFPSLHQSLPQNQCYMATTKSQTACLPFVLAAAVSRKKKRRMGTYSLVPKKKTKVLKQRTVIEMFKSITHSTVGSKGEKDLGASSLHVNGESLEMDSDEDDSEELEEDDGHGAEQAAAFPTEDSRTSKESMSEADRAQKMDGESEEEQESVDTGEEEEGGDESDLSSESSIKKKFLKRKGKTDSPWIKPARKRRRRSRKKPSGALGSESYKSSAGSAEQTAPGDSTGYMEVSLDSLDLRVKGILSSQAEGLANGPDVLETDGLQEVPLCSCRMETPKSREITTLANNQCMATESVDHELGRCTNSVVKYELMRPSNKAPLLVLCEDHRGRMVKHQCCPGCGYFCTAGNFMECQPESSISHRFHKDCASRVNNASYCPHCGEESSKAKEVTIAKADTTSTVTPVPGQEKGSALEGRADTTTGSAAGPPLSEDDKLQGAASHVPEGFDPTGPAGLGRPTPGLSQGPGKETLESALIALDSEKPKKLRFHPKQLYFSARQGELQKVLLMLVDGIDPNFKMEHQNKRSPLHAAAEAGHVDICHMLVQAGANIDTCSEDQRTPLMEAAENNHLEAVKYLIKAGALVDPKDAEGSTCLHLAAKKGHYEVVQYLLSNGQMDVNCQDDGGWTPMIWATEYKHVDLVKLLLSKGSDINIRDNEENICLHWAAFSGCVDIAEILLAAKCDLHAVNIHGDSPLHIAARENRYDCVVLFLSRDSDVTLKNKEGETPLQCASLNSQVWSALQMSKALQDSAPDRPSPVERIVSRDIARGYERIPIPCVNAVDSEPCPSNYKYVSQNCVTSPMNIDRNITHLQYCVCIDDCSSSNCMCGQLSMRCWYDKDGRLLPEFNMAEPPLIFECNHACSCWRNCRNRVVQNGLRARLQLYRTRDMGWGVRSLQDIPPGTFVCEYVGELISDSEADVREEDSYLFDLDNKDGEVYCIDARFYGNVSRFINHHCEPNLVPVRVFMAHQDLRFPRIAFFSTRLIEAGEQLGFDYGERFWDIKGKLFSCRCGSPKCRHSSAALAQRQASAAQEAQEDGLPDTSSAAAADPL
[1]
  peptides dimethylated at H1.0K180, % of all peptides: 96.6%
[2]
  peptides further methylated (H1.0K180 and H1.0K174), % of peptides: 1.02%
[3]
  sites of methylation on full-length H1.0: methylates a large number of lysine residues on the C-terminal tail of H1.0, lacking the specificity of G9A
